Laboratory results reported in publication PMC7299280.

How the values were obtained:
[1] = biological target: SARS-CoV-2 spike (S) protein, recombinant (SARS-CoV-2) (UniProt P0DTC2)
[2] = biological target: SARS-CoV-2 spike (S) protein, recombinant (SARS-CoV-2) (UniProt P0DTC2); remark: listed apart in the source

Work on CC6.33 (antibody) yielded a neutralization IC50 of SARS-CoV-2 pseudovirus (complete neutralization) [1] of 0.039 µg/mL.
Substance CC12.1 (antibody) has an in vitro IC50 neutralization against pseudovirus; pair blocked: S with ACE2 [2] of 0.019 µg/mL.
With CC12.23 (antibody) the IC50 neutralization (pseudovirus) [2] was 22 µg/mL.
